Measurements: patent US20220306751A1 (MYTHIC THERAPEUTICS, published 2022)
Substitutions are numbered along the chain they refer to.

T1: CD123 Protein, His Tag, Acro Biosciences Cat. No. ILA-H52H6 (Homo sapiens (Human), UniProt P26951 19-305)
T1 construct: Bought protein; not shown: His tag
T1 sequence: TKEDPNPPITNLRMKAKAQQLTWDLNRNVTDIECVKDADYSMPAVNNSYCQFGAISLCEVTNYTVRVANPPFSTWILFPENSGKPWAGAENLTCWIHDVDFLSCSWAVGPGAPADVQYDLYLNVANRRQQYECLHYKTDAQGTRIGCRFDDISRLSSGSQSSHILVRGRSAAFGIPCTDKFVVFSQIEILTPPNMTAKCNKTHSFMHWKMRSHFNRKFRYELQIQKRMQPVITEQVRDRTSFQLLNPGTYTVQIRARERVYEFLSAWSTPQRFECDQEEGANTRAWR

B1: MYT1414 (antibody, V domains shown)
VH: QVQLVQSGAEVKKPGASVKMSCKASHYTFTDYYMKWVKQAPGQGLEWIGDIIPSNGATFYNQKFKGKATLTVDRSISTAYMHLNRLRSDDTAVYYCTRSHLLRASWFAYWGQGTLVTVSS
VL: DFVMTQSPDSLAVSLGERATINCKSSQSLLNSGNQKNYLTWYLQKPGQPPKLLIYWASTRESGVPDRFSGSGSGTDFTLTISSLQAEDVAVYYCQNDYSYPYTFGQGTKLEIK
notes: IgG
B2: MYT1422 (antibody, V domains shown)
VH: B1 VH with H26G, M34H
VL: B1 VL
notes: IgG
B3: MYT1416 (antibody, V domains shown)
VH: B1 VH with H26G, T28H
VL: B1 VL
notes: IgG
B4: MYT1418 (antibody, V domains shown)
VH: B1 VH with H26G, T30H
VL: B1 VL
notes: IgG
B5: MYT1421 (antibody, V domains shown)
VH: B1 VH with H26G, Y33H
VL: B1 VL
notes: IgG
B6: MYT1423 (antibody, V domains shown)
VH: B1 VH with H26G, K35H
VL: B1 VL
notes: IgG
B7: MYT1415 (antibody, V domains shown)
VH: B1 VH with H26G, Y27H
VL: B1 VL
notes: IgG
B8: MYT1420 (antibody, V domains shown)
VH: B1 VH with H26G, Y32H
VL: B1 VL
notes: IgG
B9: MYT1419 (antibody, V domains shown)
VH: B1 VH with H26G, D31H
VL: B1 VL
notes: IgG
B10: MYT2774 (antibody, V domains shown)
VH: QVQLVQSGAEVKKPGASVKVSCKASGYIFTSSIMHWVRQAPGQGLEWIGYIKPYNDGTKYNEKFKGRATLTSDRSTSTAYMELSSLRSEDTAVYYCAREGGNDYYDTMDYWGQGTLVTVSS
VL: DIQMTQSPSSLSASVGDRVTITCRHSQDINSYLSWFQQKPGKAPKTLIYRVNRLVDGVPSRFSGSGSGNDYTLTISSLQPEDFATYYCLQYDAFPYTFGQGTKVEIK
notes: IgG
B11: MYT2789 (antibody, V domains shown)
VH: B10 VH
VL: B10 VL with H25A, V55H
notes: IgG
B12: MYT2791 (antibody, V domains shown)
VH: B10 VH
VL: B10 VL with H25A, L89H
notes: IgG
B13: MYT2778 (antibody, V domains shown)
VH: B10 VH
VL: B10 VL with H25A, I29H
notes: IgG
B14: MYT2799 (antibody, V domains shown)
VH: B10 VH
VL: B10 VL with H25A, T97H
notes: IgG
B15: MYT2788 (antibody, V domains shown)
VH: B10 VH
VL: B10 VL with H25A, L54H
notes: IgG
B16: MYT2785 (antibody, V domains shown)
VH: B10 VH
VL: B10 VL with H25A, V51H
notes: IgG
B17: MYT2795 (antibody, V domains shown)
VH: B10 VH
VL: B10 VL with H25A, A93H
notes: IgG
B18: MYT2775 (antibody, V domains shown)
VH: B10 VH
VL: B10 VL with H25A, S26H
notes: IgG
B19: MYT2779 (antibody, V domains shown)
VH: B10 VH
VL: B10 VL with H25A, N30H
notes: IgG
B20: MYT2783 (antibody, V domains shown)
VH: B10 VH
VL: B10 VL with H25A, S34H
notes: IgG
B21: MYT2782 (antibody, V domains shown)
VH: B10 VH
VL: B10 VL with H25A, L33H
notes: IgG
B22: MYT2786 (antibody, V domains shown)
VH: B10 VH
VL: B10 VL with H25A, N52H
notes: IgG
B23: MYT2793 (antibody, V domains shown)
VH: B10 VH
VL: B10 VL with H25A, Y91H
notes: IgG
B24: MYT2798 (antibody, V domains shown)
VH: B10 VH
VL: B10 VL with H25A, Y96H
notes: IgG
B25: MYT2787 (antibody, V domains shown)
VH: B10 VH
VL: B10 VL with H25A, R53H
notes: IgG
B26: MYT2794 (antibody, V domains shown)
VH: B10 VH
VL: B10 VL with H25A, D92H
notes: IgG
B27: MYT2797 (antibody, V domains shown)
VH: B10 VH
VL: B10 VL with H25A, P95H
notes: IgG
B28: MYT2790 (antibody, V domains shown)
VH: B10 VH
VL: B10 VL with H25A, D56H
notes: IgG
B29: MYT2796 (antibody, V domains shown)
VH: B10 VH
VL: B10 VL with H25A, F94H
notes: IgG
B30: MYT2780 (antibody, V domains shown)
VH: B10 VH
VL: B10 VL with H25A, S31H
notes: IgG
B31: MYT2784 (antibody, V domains shown)
VH: B10 VH
VL: B10 VL with H25A, R50H
notes: IgG
B32: MYT2777 (antibody, V domains shown)
VH: B10 VH
VL: B10 VL with H25A, D28H
notes: IgG
B33: MYT2781 (antibody, V domains shown)
VH: B10 VH
VL: B10 VL with H25A, Y32H
notes: IgG
B34: MYT2792 (antibody, V domains shown)
VH: B10 VH
VL: B10 VL with H25A, Q90H
notes: IgG
B35: MYT2776 (antibody, V domains shown)
VH: B10 VH
VL: B10 VL with H25A, Q27H
notes: IgG

Biological target: T1, CD123 Protein, His Tag, Acro …
Experiment: BLI, IgG on anti-human Fc sensor, 50 nM CD123, pH 7.4 and pH 5.4
Source text: We selected IMGN632 (Heavy chain SEQ ID NO: 1, Light chain SEQ ID NO: 2) as a CD123-binding monoclonal antibody for pH engineering via histidine scanning. Briefly, CDRs in the heavy chain were identified using the methods described by Kabat et al (Kabat et al. (1992) Sequences of Proteins of Immunological Interest, DIANE publishing) and IMGT (Lefranc M P (1999) “The IMGT unique numbering for Immunoglobulins, T cell receptors and Ig-like domains” The Immunologist 7, 132-136), and for each CDR, residues falling under either or both Kabat and IMGT CDR definitions were called as CDR residues. To generate pH-dependent sequence variants, individual amino acid residues within the heavy chain CDRs were systematically substituted with a histidine, one at a time (MYT1252-MYT1292). In cases where the starting CDR residue was a histidine, it was mutated to an alanine. Antibody variants with only one histidine or alanine mutation in a heavy chain CDR were generated by co-transfection of Expi293 cells with a) one heavy chain sequence variant, and b) the corresponding starting ABPC light chain using methods known to the art. After allowing for four days of protein expression, cell culture supernatants were collected, quantified by SDS-PAGE analysis (FIG. 1), and the pH dependence of the variant was evaluated using biolayer interferometry (BLI) on an Octet RED 384 instrument. For constructs MYT1252, MYT1254-MYT1287, and MYT1289-1292, 104, of cell culture supernatant was diluted into 1904, of 1× PBST pH 7.4. For MYT1253 and MYT1288 254, and 504, of cell culture supernatant was diluted into 1754, and 1504, respectively. […] The resulting diluted supernatants were then captured on an anti-human Fc sensor (Forte Bio). A baseline was established using 1× PBST (50 mM Potassium Phosphate Buffer+150 mM NaCl+0.05% Tween 20) pH 7.4, and the sensor was associated with 50 nM of CD123 (CD123 Protein, His Tag, Acro Biosciences Cat. No. ILA-H52H6, Lot No. 1741d-89CF1-KB) in 1×PBST pH 7.4 for 120 sec to generate an association curve. In the dissociation phase, the antibody-antigen complex on the sensor was exposed to 1× PBST pH 7.4 for 300-600 sec. Baseline, association, and dissociation were repeated using 1×PBST pH 5.4 throughout in a separate condition.

| binding result | Binder |
| --- | --- |
| binds | B1 |
| binds | B2 |
| binds | B3 |
| binds | B4 |
| binds | B5 |
| binds | B6 |
| binds | B7 |
| binds | B8 |
| binds | B9 |
| binds | B10 |
| binds | B11 |
| binds | B12 |
| binds | B13 |
| binds | B14 |
| binds | B15 |
| binds | B16 |
| binds | B17 |
| binds | B18 |

| binding result | Binder |
| --- | --- |
| binds | B19 |
| binds | B20 |
| binds | B21 |
| binds | B22 |
| binds | B23 |
| binds | B24 |
| binds | B25 |
| binds | B26 |
| binds | B27 |
| binds | B28 |
| binds | B29 |
| binds | B30 |
| binds | B31 |
| binds | B32 |
| binds | B33 |
| binds | B34 |
| binds | B35 |
